Columns and labels:
Experiment in all cases: HPLC of oxidised product, Sf9 microsomes
Assay type in all cases: biochemical, Homo sapiens
Details in all cases: apparent Km, NAD+-dependent oxidation, 90 mM potassium phosphate pH 7.3, 40 mM KCl, 37 °C
[1] = substrate: CC/C=C\C[C@H](O)/C=C/C=C\C=C\C=C\[C@@H](O)[C@@H](O)C/C=C\CCC(=O)O
Excerpt: (§1) HPLC of oxidised product, Sf9 microsomes on human DHRS9 (SDR9C4)

[2] = substrate: CCCCC/C=C\C=C\[C@@H](O)CCCCCCCC(=O)O
Excerpt: as §1

[3] = substrate: CCCCC/C=C\C[C@@H](O)/C=C/C=C/C=C\[C@@H](O)CCCC(=O)O
Excerpt: as §1

[4] = substrate: CCCCC/C=C\C[C@H](O)/C=C/C=C\C/C=C\CCCC(=O)O
Excerpt: as §1

[5] = substrate: CCCCC[C@H](O)/C=C/C=C\C/C=C\C/C=C\CCCC(=O)O
Excerpt: as §1

[6] = substrate: CCCCC[C@H](O)/C=C/C=C\C=C\C=C\[C@@H](O)[C@@H](O)CCCC(=O)O
Excerpt: as §1

[7] = substrate: CCCCC[C@H](O)/C=C/C=C\CCCCCCCC(=O)O
Excerpt: as §1

[8] = substrate: CCCCC/C=C\C=C\[C@@H](O)CCCCCCCC(=O)O; remark: listed apart in the source
Excerpt: (§2) HPLC of oxidised product, Sf9 microsomes on human RDH16 (SDR9C8)

[9] = substrate: CCCCC/C=C\C[C@H](O)/C=C/C=C\C/C=C\CCCC(=O)O; remark: listed apart in the source
Excerpt: as §2

[10] = substrate: CCCCC[C@H](O)/C=C/C=C\C/C=C\C/C=C\CCCC(=O)O; remark: listed apart in the source
Excerpt: as §2

[11] = substrate: CCCCC[C@H](O)/C=C/C=C\CCCCCCCC(=O)O; remark: listed apart in the source
Excerpt: as §2

[12] = substrate: CCCCC/C=C\C=C\[C@@H](O)CCCCCCCC(=O)O; remark: listed apart in the source
Excerpt: (§3) HPLC of oxidised product, Sf9 microsomes on human HSD17B6 (SDR9C6)

[13] = substrate: CCCCC/C=C\C[C@H](O)/C=C/C=C\C/C=C\CCCC(=O)O; remark: listed apart in the source
Excerpt: as §3

[14] = substrate: CCCCC[C@H](O)/C=C/C=C\C/C=C\C/C=C\CCCC(=O)O; remark: listed apart in the source
Excerpt: as §3

[15] = substrate: CCCCC[C@H](O)/C=C/C=C\CCCCCCCC(=O)O; remark: listed apart in the source
Excerpt: as §3

B1: human DHRS9 (SDR9C4) (Homo sapiens) (protein)
chain: RKGKLKIEDITDKYIFITGCDSGFGNLAARTFDKKGFHVIAACLTESGSTALKAETSERLRTVLLDVTDPENVKRTAQWVKNQVGEKGLWGLINNAGVPGVLAPTDWLTLEDYREPIEVNLFGLISVTLNMLPLVKKAQGRVINVSSVGGRLAIVGGGYTPSKYAVEGFNDSLRRDMKAFGVHVSCIEPGLFKTNLADPVKVIEKKLAIWEQLSPDIKQQYGEGYIEKSLDKLKGNKSYVNMDLSPVVECMDHALTSLFPKTHYAAGKDAKIFWIPLSHMPAALQDFLLLKQKAELANPKAV
notes: recombinant, baculovirus-infected Sf9 cell microsomes
With B1 the Km [1] was 1.6 ± 0.5 µM, the Vmax [1] was 8.5e-05 µmol/min and the Km [2] was 0.57 ± 0.25 µM. For the same protein, the Vmax [2] was 2.4e-05 µmol/min, the Km [3] was 0.76 ± 0.44 µM and the Vmax [3] was 0.00017 µmol/min. It also gave a Km [4] of 0.43 ± 0.16 µM, a Vmax [4] of 0.00022 µmol/min and a Km [5] of 0.36 ± 0.18 µM. It also gave a Vmax [5] of 0.00014 µmol/min, a Km [6] of 4.6 ± 2.7 µM and a Vmax [6] of 0.00023 µmol/min. For the same protein, the Km [7] was 0.46 ± 0.19 µM and the Vmax [7] was 0.00011 µmol/min.

B2: human RDH16 (SDR9C8) (Homo sapiens) (protein)
chain: MWLYLAVFVGLYYLLHWYRERQVLSHLRDKYVFITGCDSGFGKLLARQLDARGLRVLAACLTEKGAEQLRGQTSDRLETVTLDVTKTESVAAAAQWVKECVRDKGLWGLVNNAGISLPTAPNELLTKQDFVTILDVNLLGVIDVTLSLLPLVRRARGRVVNVSSVMGRVSLFGGGYCISKYGVEAFSDSLRRELSYFGVKVAMIEPGYFKTAVTSKERFLKSFLEIWDRSSPEVKEAYGEKFVADYKKSAEQMEQKCTQDLSLVTNCMEHALIACHPRTRYSAGWDAKLLYLPMSYMPTFLVDAIMYWVSPSPAKAL
notes: as for B1
Work on B2 yielded a Km [8] of 1.76 ± 0.59 µM, a Vmax [8] of 1.67e-05 µmol/min and a Km [9] of 2.01 ± 0.64 µM. It also gave a Vmax [9] of 2.15e-06 µmol/min, a Km [10] of 1.39 ± 0.56 µM and a Vmax [10] of 2.04e-05 µmol/min. For the same protein, the Km [11] was 0.83 ± 0.36 µM and the Vmax [11] was 7.7e-06 µmol/min.

B3: human HSD17B6 (SDR9C6) (Homo sapiens) (protein)
chain: YRERQVVSHLQDKYVFITGCDSGFGNLLARQLDARGLRVLAACLTEKGAEQLRGQTSDRLETVTLDVTKMESIAAATQWVKEHVGDRGLWGLVNNAGILTPITLCEWLNTEDSMNMLKVNLIGVIQVTLSMLPLVRRARGRIVNVSSILGRVAFFVGGYCVSKYGVEAFSDILRREIQHFGVKISIVEPGYFRTGMTNMTQSLERMKQSWKEAPKHIKETYGQQYFDALYNIMKEGLLNCSTNLNLVTDCMEHALTSVHPRTRYSAGWDAKFFFIPLSYLPTSLADYILTRSWPKPAQAV
notes: as for B1
B3 showed a Km [12] of 0.64 ± 0.28 µM, a Vmax [12] of 4e-07 µmol/min and a Km [13] of 0.87 ± 0.35 µM. The Vmax [13] was 7.96e-06 µmol/min, the Km [14] was 1.78 ± 0.42 µM and the Vmax [14] was 2.88e-06 µmol/min. It also gave a Km [15] of 0.33 ± 0.24 µM and a Vmax [15] of 9e-07 µmol/min.
